This is an account of results in patent US20220017620A1.

A word on the EC50 (read off the curve): it is the midpoint of the concentration-response curve.

The target of this test is B7-H3 on Hs-700T pancreatic cancer cells (UniProt Q5ZPR3). The experiment in a line: cell-based ELISA on fixed Hs-700T cells.

B1: P1G2 full-length IgG1 antibody (antibody, V domains shown)
VH: QVQLQQSGAEVKKPGSSVKVSCKASGGTFSSYAISWVRQAPGQGLEWMGRIIPILGIANYAQKFQGRVTITADKSTSTAYMELSSLRSEDTAVYYCAVNYYDSSGYYSDYWGQGTLVTVSS
VL: SYELTQPPSASGSPGQSVTISCTGTSSDVGGYNYVSWYQQHPGKAPRLMIYGVSQRPSGVPDRFSGSKSGNTASLTVSGLQAEDEADYYCSSYANNNYVFGTGTKVTVL
Turning to B1, the EC50 (read off the curve) stood at 0.03 µg/mL.

B2: P1D1 full-length IgG1 antibody (antibody, V domains shown)
VH: QVQLVQSGAEVKKPGESLKISCKGSGYSFTSYWIGWVRQMPGKGLEWMGIIYPGDSDTRYSPSFQGQVTISADKSISTAYLQWSSLKASDTAMYYCARRSVAGLDYWGQGTLVTVSS
VL: KTVVTQPPSASGTPGQRVTISCSGSSSNIGSKYVYWYQQLPGTAPRLLIYRNNQRPSGVPDRFSGSKSGTSASLAISGLRSEDESDYYCASWDDRLKGYAFGTGTKVTVL
B2: the EC50 (read off the curve) was 0.03 µg/mL.
